Experimental data taken from patent US12410253B2, “Compositions comprising anti-NRP2 antibodies” (aTyr Pharma, Inc., priority 2019, dated 2025).
Entries after “also recorded” stand apart in the source; their conditions may differ.

T1: NRP2/FLT4(VEGFR3) (Homo sapiens, UniProt O60462)
T1 construct: The complete extracellular domain and transmembrane helices of NRP2a (version 2), NRP2b (version 5); expressed in transfected cells; host or cells: Expi293, transient co-transfection
T1 sequence (O60462 23-859 isoform O60462-3 limits assumed): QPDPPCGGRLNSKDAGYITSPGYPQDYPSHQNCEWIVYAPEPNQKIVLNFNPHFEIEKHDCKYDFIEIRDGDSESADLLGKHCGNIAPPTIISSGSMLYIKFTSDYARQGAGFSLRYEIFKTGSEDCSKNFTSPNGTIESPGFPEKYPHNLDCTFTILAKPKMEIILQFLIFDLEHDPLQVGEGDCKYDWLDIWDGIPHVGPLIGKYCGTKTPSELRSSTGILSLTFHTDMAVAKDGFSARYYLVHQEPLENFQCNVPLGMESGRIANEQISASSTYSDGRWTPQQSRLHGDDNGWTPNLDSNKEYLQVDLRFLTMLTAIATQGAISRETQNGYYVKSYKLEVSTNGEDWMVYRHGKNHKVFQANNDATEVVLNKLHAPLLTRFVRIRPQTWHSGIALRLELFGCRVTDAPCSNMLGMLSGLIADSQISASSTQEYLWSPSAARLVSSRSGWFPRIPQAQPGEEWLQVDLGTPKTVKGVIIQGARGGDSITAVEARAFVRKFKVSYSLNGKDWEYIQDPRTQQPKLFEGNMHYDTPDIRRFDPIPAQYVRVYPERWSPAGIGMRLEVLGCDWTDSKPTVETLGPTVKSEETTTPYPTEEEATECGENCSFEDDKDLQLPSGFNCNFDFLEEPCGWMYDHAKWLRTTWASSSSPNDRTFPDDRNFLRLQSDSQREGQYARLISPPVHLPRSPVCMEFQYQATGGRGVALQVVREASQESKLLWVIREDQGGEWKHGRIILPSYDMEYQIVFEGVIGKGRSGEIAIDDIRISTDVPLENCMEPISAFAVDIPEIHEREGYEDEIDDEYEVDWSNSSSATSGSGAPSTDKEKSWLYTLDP

B1: aNRP2-10v10: humanized, affinity matured anti-NRP2 antibody, target domain b1, VEGF-C blocking; VH SEQ ID NO: 49, VL SEQ ID NO: 50 (antibody, V domains shown)
VH: EVQLVQSGAEVKKPGATVKISCKVSGFNIKDYYVHWVQQAPGKGLEWMGRIDVEDDETKYAPKFQGRVTITADTSTDTAYMELSSLRSEDTAVYYCATPIYGAREAWFAYWGQGTLVTVSS
VL: DIQMTQSPSSLSASVGDRVTITCTASSSVSSSYLHWYQQKPGKAPKLLIYRTSNLASGVPSRFSGSGSGTDFTLTISSLQPEDFATYYCHQYYRSPPTFGGGTKVEIK
modifications: Variable heavy chain region; Light chain variable region
B2: aNRP2-11v7: humanized, affinity matured anti-NRP2 antibody, target domain b2; VH SEQ ID NO: 51, VL SEQ ID NO: 52 (antibody, V domains shown)
VH: QVQLVQSGAEVKKPGASVKVSCKASGYTFTSFGISWVRQAPGQGLEWIGEIYPRSGNTYYNENFKGRATMTADKSTSTAYMELRSLRSDDTAVYYCARSSGYYGSTPFPYWGQGTLVTVSS
VL: DIQMTQSPSSLSASVGDRVTITCRASQDISNYLNWYQQKPGKAVKLLIYYTSRLHSGVPSRFSGSGSGTDYTFTISSLQPEDIATYYCQQGNTLPWTFGGGTKVEIK
modifications: Variable heavy chain region; Light chain variable region

Legend:
NRP2/PLXNA1 = test: Split-luciferase receptor dimerization assay, NRP2/PLXNA1 with SEMA3F; assay type: cell-based, human; conditions: antibody 100 nM; ligand induced dimerization
Method: (§1) To further extend the assessment of the biological activity of the anti-NRP2 antibodies, their activity was assessed in a receptor dimerization assay. In brief, vectors encoding a split luciferase pBiT1.1 and pBiT2.1 were obtained from Promega corporation (Madison, Wisconsin). The complete extracellular domain and transmembrane helices of NRP2a (version 2), NRP2b (version 5) (See table N1), FLT4 (VEGFR3), KDR (VEGFR2), and plexin A1 (PLXNA1) were cloned into the vectors and screened for optimal orientation, receptor density, and ligand induced dimerization, following established methods. Expi293 cells (Fisher) were transfected at 1 million cells/mL ˜20 hours prior to the assay with NRP2 and a co-receptor at equal mass amounts. Cells were counted, and 100,000 live cells were plated in a well of a white luminometer plate in Live Cell Imaging Solution (Fisher). Nano-Glo assay substrate (Promega) was added, and the plate was read on a Glomax 96 luminometer at room temperature to establish baseline luminescence. Antibodies were added to the well at 100 nM and the plate was again read to establish a new baseline and monitor the effects of the antibodies on spontaneous receptor dimerization. Depending on the receptor pair, typically 200 nM SEMA3F-p95 (aTyr Pharma), 2 nM VEGF-C(R&D Systems, Minnesota), or 2 nM VEGF165 (R&D Systems, Minnesota) were then added and the plate was again read to measure dimerization of receptors. Normalized responses for each individual well were calculated to the time point prior to addition of ligand, then normalized to no-antibody/no-ligand (baseline signal). Replicates were then processed to give average response and standard deviation. Results are summarized in Table E3 below, and shown graphically in FIGS. 3-10.

NRP2/FLT4(VEGFR3) = target: T1, NRP2/FLT4(VEGFR3); test: Split-luciferase receptor dimerization assay, NRP2/FLT4 with VEGF-C; assay type: cell-based; conditions: antibody 100 nM; ligand induced dimerization
Method: as §1

[1] = test system: phospho-Akt levels in U251 glioblastoma cells; test: Semaphorin 3F mediated inhibition of AKT phosphorylation in U251 cells; assay type: cell-based; conditions: antibody 10 μg/mL, 25 nM Sema3F 1 hour
Method: As shown schematically in FIG. 17, the treatment of cells with Sema3F should specifically block PI3K activity via NRP2 mediated interaction with plexin A1, thereby resulting in reduced phospho-Akt levels. To directly test the ability of the anti-NRP2 antibodies to block this effect, lysates were prepared following standard protocols (MesoScale Discovery, Phospho (Ser473)/Total Akt Assay Whole Cell Lysate Kit #K15100D). Serum starved and confluent U251 cells (Sigma, Cat. 09063001) were treated with 10 nM rapamycin (Sigma, Cat. 553211, 30 minutes), and blocking antibodies or controls were added (10 μg/mL, 30 minutes), followed by 25 nM Sema3F or serum free media for 1 hour in triplicate. Lysate protein concentrations were determined by BCA assay and samples were equalized to 0.4 mg/mL. Phospho and Total AKT were measured following the manufacturer's instructions and percent phosphorylation was calculated by dividing phosphorylated AKT relative units by total AKT relative units. Blocking of Sema3F for each antibody or control was determined by comparing percent phosphorylation of Sema3F treated cells to percent phosphorylation of non-Sema3F treated cells.

| Molecule | effect on NRP2-plexin heterodimerization (in words) (NRP2/PLXNA1) | effect on NRP2-VEGFR3 (FLT4) heterodimerization (in words) (NRP2/FLT4(VEGFR3)) | blocking of the Sema3F induced decrease in intracellular phospho-Akt levels [1] |
| --- | --- | --- | --- |
| B1 | without significantly inhibiting | potently inhibit | not blocked |
| B2 | increased the ligand induced dimerization signal | ability to inhibit | blocked the reduction in phospho-Akt levels; also recorded: block semaphorin 3F mediated inhibition of AKT phosphorylation; also recorded: can be blocked |
